Target: GST-PpROP4CA (G15V)
Experiment: pull-down (MBP pull-down, anti-GST western blot, band quantification)
Settings: three replicates; parent: est. 0.17; read off a plot

In the case of MBP-PpREN (wild type) R204L, the other: Protein ratio is reported as 0.17.

From publication PMC10625565
